Earlier results on 1 substance are cited in article PMC4136965 (Journal of nuclear medicine : official publication, Society …, 2009).

Where two headings read alike, the source gives them in different places. Non-standard residues stand in square brackets, D forms with d. No end group written: not given here.

The series relates to B16F10 xenografted melanoma. Particulars: mouse, in vivo.

With “^18F-FB-Ac-Nle-Asp-His-D-Phe-Arg-Trp-Gly-Lys-NH2 ([dF]RWGK-NH2; not fully specified (N-terminus); also: 18F-FB label, position not given here) [^18F-FB-NAPamide]”, the Tumor uptake runs as follows: (1 h) 1.19 ± 0.11 %ID/g; (4 h) 0.25 ± 0.05 %ID/g.
